The test has as its target Protein phosphatase 1 alpha 7-330 (Homo sapiens, UniProt P62136). The experiment in a line: ITC.

Chain of Protein phosphatase 1 alpha 7-330 (P62136 7-330): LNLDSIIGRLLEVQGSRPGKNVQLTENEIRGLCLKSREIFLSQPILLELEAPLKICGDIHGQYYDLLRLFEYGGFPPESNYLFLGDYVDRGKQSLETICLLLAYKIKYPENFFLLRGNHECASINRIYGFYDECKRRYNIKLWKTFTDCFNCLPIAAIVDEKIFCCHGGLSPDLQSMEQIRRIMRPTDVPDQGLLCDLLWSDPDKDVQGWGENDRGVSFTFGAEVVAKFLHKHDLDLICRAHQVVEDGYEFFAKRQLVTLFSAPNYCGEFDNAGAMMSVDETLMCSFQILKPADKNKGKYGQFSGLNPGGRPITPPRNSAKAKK

B1: Spinophilin 417-583 (protein)
chain: not shown
As for B1, binding was characterised by a dissociation constant (Kd) of 8.7 nM.

(Values after publication PMC2924587 (2010).)
